Results from patent US20220009996A1 (NORTHWESTERN UNIVERSITY, published 2022).

B1: backbone PA (C16V3A3E3) nanofibers (peptide)
peptide: VVVAAAEEE
HELM: PEPTIDE1{[CCCCCCCCCCCCCCCC(=O)[*:2]].V.V.V.A.A.A.E.E.E.[am]}$$$$V2.0
SMILES: CCCCCCCCCCCCCCCC(=O)N[C@H](C(=O)N[C@H](C(=O)N[C@H](C(=O)N[C@@H](C)C(=O)N[C@@H](C)C(=O)N[C@@H](C)C(=O)N[C@@H](CCC(=O)O)C(=O)N[C@@H](CCC(=O)O)C(=O)N[C@@H](CCC(=O)O)C(N)=O)C(C)C)C(C)C)C(C)C
notes: Peptide amphiphile without targeting moiety, self-assembled into nanofibers; also called filler PA; non-bioactive backbone PA
B2: VCAMb-scr PA (C16V3A3E3GSGQHPHVK) nanofibers (peptide)
peptide: VVVAAAEEEGSGQHPHVK
HELM: PEPTIDE1{[CCCCCCCCCCCCCCCC(=O)[*:2]].V.V.V.A.A.A.E.E.E.G.S.G.Q.H.P.H.V.K.[am]}$$$$V2.0
SMILES: CCCCCCCCCCCCCCCC(=O)N[C@H](C(=O)N[C@H](C(=O)N[C@H](C(=O)N[C@@H](C)C(=O)N[C@@H](C)C(=O)N[C@@H](C)C(=O)N[C@@H](CCC(=O)O)C(=O)N[C@@H](CCC(=O)O)C(=O)N[C@@H](CCC(=O)O)C(=O)NCC(=O)N[C@@H](CO)C(=O)NCC(=O)N[C@@H](CCC(N)=O)C(=O)N[C@@H](Cc1c[nH]cn1)C(=O)N1CCC[C@H]1C(=O)N[C@@H](Cc1c[nH]cn1)C(=O)N[C@H](C(=O)N[C@@H](CCCCN)C(N)=O)C(C)C)C(C)C)C(C)C)C(C)C
notes: formed relatively short, closely packed fibers; also called scrambled control PA
B3: VCAM-1 binding PA (C16V3A3E3GSGVHPKQH) nanofibers (peptide)
peptide: VVVAAAEEEGSGVHPKQH
HELM: PEPTIDE1{[CCCCCCCCCCCCCCCC(=O)[*:2]].V.V.V.A.A.A.E.E.E.G.S.G.V.H.P.K.Q.H.[am]}$$$$V2.0
SMILES: CCCCCCCCCCCCCCCC(=O)N[C@H](C(=O)N[C@H](C(=O)N[C@H](C(=O)N[C@@H](C)C(=O)N[C@@H](C)C(=O)N[C@@H](C)C(=O)N[C@@H](CCC(=O)O)C(=O)N[C@@H](CCC(=O)O)C(=O)N[C@@H](CCC(=O)O)C(=O)NCC(=O)N[C@@H](CO)C(=O)NCC(=O)N[C@H](C(=O)N[C@@H](Cc1c[nH]cn1)C(=O)N1CCC[C@H]1C(=O)N[C@@H](CCCCN)C(=O)N[C@@H](CCC(N)=O)C(=O)N[C@@H](Cc1c[nH]cn1)C(N)=O)C(C)C)C(C)C)C(C)C)C(C)C
notes: Peptide amphiphile, self-assembled into supramolecular nanofibers after annealing; tested as nanofibers, so the number of copies in one assembly is not defined; In the microfluidic assay it stood as a coating on lymphocytes; also called VCAMb PA; VCAM-1 targeting PA

What was measured:
[1] = target: T1, Recombinant Human VCAM-1/CD106 Fc chimera protein (R&D Systems) (human, UniProt P19320 25-698); experiment: bio-layer interferometry (BLItz): VCAM-1 Fc chimera immobilised on an Anti-Penta-HIS biosensor, PA nanofibers in DPBS as analyte, 300 s association and 300 s dissociation
T1 construct: Bought from R&D Systems; also called VCAM-1 protein; not shown: Fc part (and any linker or His tag) of the bought chimera is not described
T1 sequence (looked up): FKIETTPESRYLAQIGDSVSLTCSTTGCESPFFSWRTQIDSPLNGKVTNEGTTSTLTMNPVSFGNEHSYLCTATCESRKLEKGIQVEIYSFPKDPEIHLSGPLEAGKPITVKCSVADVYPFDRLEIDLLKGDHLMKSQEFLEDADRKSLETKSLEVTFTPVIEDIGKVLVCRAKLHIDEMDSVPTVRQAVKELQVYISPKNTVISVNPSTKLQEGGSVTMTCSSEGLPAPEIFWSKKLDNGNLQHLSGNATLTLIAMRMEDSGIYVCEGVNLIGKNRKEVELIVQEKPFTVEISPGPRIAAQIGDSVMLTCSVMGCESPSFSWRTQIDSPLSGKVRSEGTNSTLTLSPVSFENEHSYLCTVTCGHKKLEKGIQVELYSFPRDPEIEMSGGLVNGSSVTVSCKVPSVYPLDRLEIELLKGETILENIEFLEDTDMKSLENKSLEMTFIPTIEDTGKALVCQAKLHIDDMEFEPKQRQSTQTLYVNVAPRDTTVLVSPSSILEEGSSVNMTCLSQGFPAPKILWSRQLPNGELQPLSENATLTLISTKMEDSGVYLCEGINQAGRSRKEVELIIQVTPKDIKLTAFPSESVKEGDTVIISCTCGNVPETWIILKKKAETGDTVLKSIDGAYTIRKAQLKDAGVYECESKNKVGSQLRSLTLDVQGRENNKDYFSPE

[2] = target: T1, Recombinant Human VCAM-1/CD106 Fc …; experiment: BLI (BLItz), VCAM-1 Fc chimera immobilized on Anti-Penta-HIS biosensor, serial dilutions of PA nanofibers

Binder	binding result [1]	Kd [2] [nM]
B1	no binding (tested: 100 µM)	–
B2	no binding (tested: 100 µM)	–
B3	–	280
